Data on seven molecules can be found in US20190233495A1 (Sanofi, published 2019).

Sequences and labels used below:
T1: RXFP1 receptor (UniProt Q9HBX9 1-757, limits assumed)
T1 sequence (looked up): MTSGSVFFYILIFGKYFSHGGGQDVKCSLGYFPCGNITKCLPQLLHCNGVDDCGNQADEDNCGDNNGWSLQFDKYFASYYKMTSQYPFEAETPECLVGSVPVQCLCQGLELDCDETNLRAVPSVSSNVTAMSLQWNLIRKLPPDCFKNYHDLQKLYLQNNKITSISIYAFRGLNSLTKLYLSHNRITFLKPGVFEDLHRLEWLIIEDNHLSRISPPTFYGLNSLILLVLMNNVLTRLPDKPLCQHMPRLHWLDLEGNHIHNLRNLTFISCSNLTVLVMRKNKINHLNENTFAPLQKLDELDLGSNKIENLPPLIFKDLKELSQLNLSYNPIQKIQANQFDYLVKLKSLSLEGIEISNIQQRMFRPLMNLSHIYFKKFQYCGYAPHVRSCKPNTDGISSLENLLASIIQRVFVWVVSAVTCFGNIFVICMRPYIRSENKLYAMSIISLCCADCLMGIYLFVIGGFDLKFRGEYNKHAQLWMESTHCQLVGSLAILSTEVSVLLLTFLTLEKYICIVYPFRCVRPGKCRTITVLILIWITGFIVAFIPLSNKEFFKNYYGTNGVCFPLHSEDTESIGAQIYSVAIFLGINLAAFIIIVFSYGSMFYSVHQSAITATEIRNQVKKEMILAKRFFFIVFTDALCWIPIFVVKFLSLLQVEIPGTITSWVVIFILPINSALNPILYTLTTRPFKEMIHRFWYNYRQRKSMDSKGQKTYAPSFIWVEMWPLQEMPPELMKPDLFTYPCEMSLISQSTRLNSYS

B1: SEQ ID NO: 17 (peptide)
peptide: Ac-LEGREKVRAAI[Aib][Aib]EG[Nle]STWS[Aib]RKK-NH2
SMILES: CCCC[C@H](NC(=O)CNC(=O)[C@H](CCC(=O)O)NC(=O)C(C)(C)NC(=O)C(C)(C)NC(=O)[C@@H](NC(=O)[C@H](C)NC(=O)[C@H](C)NC(=O)[C@H](CCCNC(=N)N)NC(=O)[C@@H](NC(=O)[C@H](CCCCN)NC(=O)[C@H](CCC(=O)O)NC(=O)[C@H](CCCNC(=N)N)NC(=O)CNC(=O)[C@H](CCC(=O)O)NC(=O)[C@H](CC(C)C)NC(C)=O)C(C)C)[C@@H](C)CC)C(=O)N[C@@H](CO)C(=O)N[C@H](C(=O)N[C@@H](Cc1c[nH]c2ccccc12)C(=O)N[C@@H](CO)C(=O)NC(C)(C)C(=O)N[C@@H](CCCNC(=N)N)C(=O)N[C@@H](CCCCN)C(=O)N[C@@H](CCCCN)C(N)=O)[C@@H](C)O
B2: SEQ ID NO: 2 (peptide)
peptide: Ac-LEGREKVRAQI[Aib][Aib]EGMSKWSKRKK-NH2
SMILES: CC[C@H](C)[C@H](NC(=O)[C@H](CCC(N)=O)NC(=O)[C@H](C)NC(=O)[C@H](CCCNC(=N)N)NC(=O)[C@@H](NC(=O)[C@H](CCCCN)NC(=O)[C@H](CCC(=O)O)NC(=O)[C@H](CCCNC(=N)N)NC(=O)CNC(=O)[C@H](CCC(=O)O)NC(=O)[C@H](CC(C)C)NC(C)=O)C(C)C)C(=O)NC(C)(C)C(=O)NC(C)(C)C(=O)N[C@@H](CCC(=O)O)C(=O)NCC(=O)N[C@@H](CCSC)C(=O)N[C@@H](CO)C(=O)N[C@@H](CCCCN)C(=O)N[C@@H](Cc1c[nH]c2ccccc12)C(=O)N[C@@H](CO)C(=O)N[C@@H](CCCCN)C(=O)N[C@@H](CCCNC(=N)N)C(=O)N[C@@H](CCCCN)C(=O)N[C@@H](CCCCN)C(N)=O
B3: SEQ ID NO: 15 (peptide)
peptide: Ac-LEGREKVRAQI[Aib][Aib]EG[Nle]ST[1Nal]SKRKK-NH2
SMILES: CCCC[C@H](NC(=O)CNC(=O)[C@H](CCC(=O)O)NC(=O)C(C)(C)NC(=O)C(C)(C)NC(=O)[C@@H](NC(=O)[C@H](CCC(N)=O)NC(=O)[C@H](C)NC(=O)[C@H](CCCNC(=N)N)NC(=O)[C@@H](NC(=O)[C@H](CCCCN)NC(=O)[C@H](CCC(=O)O)NC(=O)[C@H](CCCNC(=N)N)NC(=O)CNC(=O)[C@H](CCC(=O)O)NC(=O)[C@H](CC(C)C)NC(C)=O)C(C)C)[C@@H](C)CC)C(=O)N[C@@H](CO)C(=O)N[C@H](C(=O)N[C@@H](Cc1cccc2ccccc12)C(=O)N[C@@H](CO)C(=O)N[C@@H](CCCCN)C(=O)N[C@@H](CCCNC(=N)N)C(=O)N[C@@H](CCCCN)C(=O)N[C@@H](CCCCN)C(N)=O)[C@@H](C)O
B4: SEQ ID NO: 16 (peptide)
peptide: Ac-LEGREKVRAAI[Aib][Aib]EGMSTWSKRKK-NH2
SMILES: CC[C@H](C)[C@H](NC(=O)[C@H](C)NC(=O)[C@H](C)NC(=O)[C@H](CCCNC(=N)N)NC(=O)[C@@H](NC(=O)[C@H](CCCCN)NC(=O)[C@H](CCC(=O)O)NC(=O)[C@H](CCCNC(=N)N)NC(=O)CNC(=O)[C@H](CCC(=O)O)NC(=O)[C@H](CC(C)C)NC(C)=O)C(C)C)C(=O)NC(C)(C)C(=O)NC(C)(C)C(=O)N[C@@H](CCC(=O)O)C(=O)NCC(=O)N[C@@H](CCSC)C(=O)N[C@@H](CO)C(=O)N[C@H](C(=O)N[C@@H](Cc1c[nH]c2ccccc12)C(=O)N[C@@H](CO)C(=O)N[C@@H](CCCCN)C(=O)N[C@@H](CCCNC(=N)N)C(=O)N[C@@H](CCCCN)C(=O)N[C@@H](CCCCN)C(N)=O)[C@@H](C)O
B5: SEQ ID NO: 13 (peptide)
peptide: Ac-LEGREKVRAQI[Aib][Aib]EG[Nle]STWSKRKK-NH2
SMILES: CCCC[C@H](NC(=O)CNC(=O)[C@H](CCC(=O)O)NC(=O)C(C)(C)NC(=O)C(C)(C)NC(=O)[C@@H](NC(=O)[C@H](CCC(N)=O)NC(=O)[C@H](C)NC(=O)[C@H](CCCNC(=N)N)NC(=O)[C@@H](NC(=O)[C@H](CCCCN)NC(=O)[C@H](CCC(=O)O)NC(=O)[C@H](CCCNC(=N)N)NC(=O)CNC(=O)[C@H](CCC(=O)O)NC(=O)[C@H](CC(C)C)NC(C)=O)C(C)C)[C@@H](C)CC)C(=O)N[C@@H](CO)C(=O)N[C@H](C(=O)N[C@@H](Cc1c[nH]c2ccccc12)C(=O)N[C@@H](CO)C(=O)N[C@@H](CCCCN)C(=O)N[C@@H](CCCNC(=N)N)C(=O)N[C@@H](CCCCN)C(=O)N[C@@H](CCCCN)C(N)=O)[C@@H](C)O
B6: SEQ ID NO: 12 (peptide)
peptide: H-[Aib]EGREKVRAQI[Aib][Aib]EGMSKWSKRKK-NH2
SMILES: CC[C@H](C)[C@H](NC(=O)[C@H](CCC(N)=O)NC(=O)[C@H](C)NC(=O)[C@H](CCCNC(=N)N)NC(=O)[C@@H](NC(=O)[C@H](CCCCN)NC(=O)[C@H](CCC(=O)O)NC(=O)[C@H](CCCNC(=N)N)NC(=O)CNC(=O)[C@H](CCC(=O)O)NC(=O)C(C)(C)N)C(C)C)C(=O)NC(C)(C)C(=O)NC(C)(C)C(=O)N[C@@H](CCC(=O)O)C(=O)NCC(=O)N[C@@H](CCSC)C(=O)N[C@@H](CO)C(=O)N[C@@H](CCCCN)C(=O)N[C@@H](Cc1c[nH]c2ccccc12)C(=O)N[C@@H](CO)C(=O)N[C@@H](CCCCN)C(=O)N[C@@H](CCCNC(=N)N)C(=O)N[C@@H](CCCCN)C(=O)N[C@@H](CCCCN)C(N)=O
B7: SEQ ID NO: 14 (peptide)
peptide: Ac-LEGREKVRAQI[Aib][Aib]EG[Nle]SK[1Nal]SKRKK-NH2
SMILES: CCCC[C@H](NC(=O)CNC(=O)[C@H](CCC(=O)O)NC(=O)C(C)(C)NC(=O)C(C)(C)NC(=O)[C@@H](NC(=O)[C@H](CCC(N)=O)NC(=O)[C@H](C)NC(=O)[C@H](CCCNC(=N)N)NC(=O)[C@@H](NC(=O)[C@H](CCCCN)NC(=O)[C@H](CCC(=O)O)NC(=O)[C@H](CCCNC(=N)N)NC(=O)CNC(=O)[C@H](CCC(=O)O)NC(=O)[C@H](CC(C)C)NC(C)=O)C(C)C)[C@@H](C)CC)C(=O)N[C@@H](CO)C(=O)N[C@@H](CCCCN)C(=O)N[C@@H](Cc1cccc2ccccc12)C(=O)N[C@@H](CO)C(=O)N[C@@H](CCCCN)C(=O)N[C@@H](CCCNC(=N)N)C(=O)N[C@@H](CCCCN)C(=O)N[C@@H](CCCCN)C(N)=O

Non-standard residues stand in square brackets, D forms with d. 1Nal = N[C@@H](Cc1cccc2ccccc12)C(=O)O; Nle = CCCC[C@H](N)C(=O)O; Aib = CC(C)(N)C(=O)O

In this test the target is T1, RXFP1 receptor. In words: cell-based or functional assay.
In the case of B1, the “cAMP assay in OVCAR 5 cells EC50” value was 11.6 nM and the “cAMP assay in OVCAR 5 cells Emax” value stood at 90%.

In the case of B2, the “cAMP assay in OVCAR 5 cells EC50” value was 14.4 nM and the “cAMP assay in OVCAR 5 cells Emax” value stood at 99%.

As to B3, the “cAMP assay in OVCAR 5 cells EC50” value worked out at 24.4 nM and the “cAMP assay in OVCAR 5 cells Emax” value is 104%.

For the molecule B4, the “cAMP assay in OVCAR 5 cells EC50” value is 4.6 nM and the “cAMP assay in OVCAR 5 cells Emax” value is 101%.

Regarding B5, the “cAMP assay in OVCAR 5 cells EC50” value turned out to be 19.2 nM and the “cAMP assay in OVCAR 5 cells Emax” value turned out to be 97%.

With B6, the “cAMP assay in OVCAR 5 cells EC50” value came to 28.2 nM and the “cAMP assay in OVCAR 5 cells Emax” value was 99%.

On to B7, for which the “cAMP assay in OVCAR 5 cells EC50” value was 32.8 nM and the “cAMP assay in OVCAR 5 cells Emax” value is 106%.
